Source: the supplement of paper PMC9732359
± gives the uncertainty stated by the source.

Assay: protein stability index of a GFP-peptide fusion (yeast GPS) (PSI 1-4); higher = more stable; sorted into four equal gates, so the index is relative within each strain
Summary of the method: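 Yeast carrying a pooled library were grown to mid-log phase in leucine-free medium. Each library plasmid expresses Cherry and has a tiled 17-residue yeast protein peptide fused downstream of GFP. Cells were sorted into four equal gates by GFP/Cherry ratio, and plasmids from each gate were PCR-amplified, Illumina-sequenced and assigned to strains by barcode. Summing, across gates, the read frequency times the gate number gave each peptide's protein stability index.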

Sequence | protein stability index (doa10∆) | protein stability index (pdr5∆) | protein stability index (san1∆) | protein stability index (ubr1∆)
SEKLITKYFEPTSTENN [ECM29] | 2.87 ± 0.076 | 3.09 ± 0.066 | 3.04 ± 0.035 | 2.97 ± 0.041
CLFTKCLEDPEKPFNEN [POP4] | 2.67 ± 0.15 | 3.02 ± 0.15 | 2.7 ± 0.2 | 2.96 ± 0.079
NLRRHSDIVLDKKVTLI [SIN4] | 2.47 ± 0.05 | 3.05 ± 0.042 | 2.87 ± 0.034 | 2.68 ± 0.038
ALAQQKLLTPQDMEAAK [GAL11] | 3.2 ± 0.12 | 3.38 ± 0.13 | 3.4 ± 0.1 | 3.32 ± 0.095
GASGEERLMSRPFGVAL [PUP2] | 3.36 ± 0.14 | 3.24 ± 0.079 | 2.93 ± 0.073 | 3.13 ± 0.05
RFAFSVIWELDDSANIV [DIS3] | 2.63 ± 0.06 | 2.49 ± 0.067 | 3.01 ± 0.063 | 2.62 ± 0.047
GYVIKVFNNGIVVLVPK [DIS3] | 2.59 ± 0.092 | 2.38 ± 0.079 | 2.39 ± 0.077 | 2.82 ± 0.067
PQENDLESKMSEVGDAF [SMC3] | 2.73 ± 0.2 | 3.36 ± 0.2 | 3.43 ± 0.11 | 2.98 ± 0.22
SPYAAMLAAQDVAAKCK [RPS14A] | 2.28 ± 0.05 | 1.82 ± 0.048 | 1.62 ± 0.067 | 1.88 ± 0.048
LYRSIESGEFDFDLFKE [YJL039C/NUP192] | 3.1 ± 0.12 | 2.93 ± 0.1 | 3.01 ± 0.069 | 2.91 ± 0.11
KTSLMDLLVIDSHKRIP [SNU114] | 2.43 ± 0.069 | 2.73 ± 0.078 | 2.74 ± 0.063 | 2.41 ± 0.054
TSPTMPDYYVSILSFVD [RPT2] | 2.2 ± 0.048 | 2.31 ± 0.05 | 2.27 ± 0.042 | 2.15 ± 0.041
TAPSSQRRVLLSAPLSK [RPL26A] | 2.45 ± 0.045 | 2.31 ± 0.053 | 2.31 ± 0.055 | 2.18 ± 0.036
KGAATGKGRQSAKAELE [PRE10] | 1.24 ± 0.088 | 1.38 ± 0.079 | 1.45 ± 0.29 | 1.22 ± 0.064
YVNVAISIYNMLPPKSV [SSN2] | 1.71 ± 0.049 | 1.82 ± 0.043 | 2.01 ± 0.062 | 2.12 ± 0.029
EVGNRKHYLEDKLKVYK [SNF5] | 3.19 ± 0.1 | 3.19 ± 0.14 | 3.11 ± 0.12 | 3.06 ± 0.067
ILDTSQSESRQKRQLHD [SNU114] | 3.23 ± 0.11 | 3.12 ± 0.084 | 1.72 ± 0.24 | 3.01 ± 0.048
IQELRKLLKSLLLNYLE [MED7] | 1.71 ± 0.056 | 1.24 ± 0.069 | 1.12 ± 0.12 | 1.04 ± 0.1
ELPKFILSDSPLELSAP [DIS3] | 2.5 ± 0.095 | 3.37 ± 0.17 | 2.85 ± 0.19 | 3.04 ± 0.092
MAQRTLKNKYESYDAAL [FAS2] | 3.147 ± 0.019 | 3.059 ± 0.017 | 2.999 ± 0.015 | 3.064 ± 0.012

Sequence | protein stability index (doa10∆) | protein stability index (pdr5∆) | protein stability index (san1∆) | protein stability index (ubr1∆)
LLSLINSTHLLPLQPIE [SNF12] | 2.34 ± 0.053 | 2.46 ± 0.05 | 3.04 ± 0.052 | 2.4 ± 0.04
IRAGEFDVVLTTFEYII [SNF2] | 2.31 ± 0.14 | 2.56 ± 0.13 | 2.37 ± 0.11 | 2.59 ± 0.12
NLNAFVDFSKYNTNFNL [SRP72] | 3.19 ± 0.12 | 2.81 ± 0.12 | 3.09 ± 0.048 | 2.17 ± 0.08
NQNFSLTFQPQQQTNAL [GRR1] | 2.95 ± 0.065 | 3.2 ± 0.061 | 3.02 ± 0.067 | 2.94 ± 0.057
ERESSGAKDAEKSGISK [RPC17] | 2.91 ± 0.18 | 3.4 ± 0.3 |  | 3.64 ± 0.16
RSLVREIAGLSPYERRL [RPL36A] | 2.86 ± 0.13 | 3.5 ± 0.2 | 2.78 ± 0.12 | 2.82 ± 0.11
RKKRTRRLKRKRRKVRA [RPL41A] | 3.14 ± 0.16 | 3.21 ± 0.13 | 3.15 ± 0.12 | 3.17 ± 0.086
RSNDPQSSLSKVDIPLE [NUT2] | 3.02 ± 0.098 | 3.23 ± 0.094 | 3.27 ± 0.056 | 2.93 ± 0.15
VGHLSILPQQSKLKLKN [ECM29] | 1.91 ± 0.16 | 2.31 ± 0.1 | 1.88 ± 0.13 | 2.5 ± 0.15
ILEELDFVRNELNDIDT [SMC3] | 3.08 ± 0.2 |  |  | 
DGIVVKNAVVRSKFGGD [ARP7] | 3.24 ± 0.26 | 1.92 ± 0.2 | 3.16 ± 0.25 | 3.56 ± 0.2
ANKEKRAIILERNAAYQ [RPL7A] | 1.2 ± 0.072 | 1.38 ± 0.081 | 1.14 ± 0.11 | 1.32 ± 0.2
DLENSPLKTELEANGRS [SSN2] | 3.6 ± 0.094 | 3.59 ± 0.093 | 3.17 ± 0.096 | 3.51 ± 0.089
FVRGDSKIFRFQNSKSA [RPL24A] | 2.31 ± 0.053 | 2.63 ± 0.057 | 2.31 ± 0.059 | 2.43 ± 0.051
FRTDMLQVADKFFRVKY [SMC3] | 1.92 ± 0.068 | 2.49 ± 0.066 | 1.77 ± 0.076 | 2.12 ± 0.051
NRVPDGFQDRSLPHFPK [RPO31] | 3.29 ± 0.16 | 2.86 ± 0.15 | 3.02 ± 0.11 | 3.6 ± 0.2
TASVEKAEFSKEMTLQK [YIL149C/MLP2] | 3.25 ± 0.15 | 3.44 ± 0.14 | 3.3 ± 0.14 | 3.22 ± 0.13
ANTGGGLFGANSNSNSG [YGL172W/NUP49] | 2.11 ± 0.11 | 2.74 ± 0.077 | 1.76 ± 0.17 | 2.22 ± 0.14
DSIGSTRVEGSGGGDSE [RPT6] | 2.6 ± 0.1 | 2.65 ± 0.11 | 3.1 ± 0.065 | 2.97 ± 0.064
STKELKFSDIIQGISKM [BRN1] | 3.16 ± 0.098 | 3.33 ± 0.084 | 3.18 ± 0.072 | 3.35 ± 0.085
